HEK293 (S/N), MFI of antibody over wells with no antibody data for two substances are collected here from US20250171520A1.

The target in this experiment is human CD63 (human) (UniProt P08962). Description: flow cytometry, HEK293 cells endogenously expressing human CD63.
human CD63 (human), sequence (P08962 2-238 limits assumed): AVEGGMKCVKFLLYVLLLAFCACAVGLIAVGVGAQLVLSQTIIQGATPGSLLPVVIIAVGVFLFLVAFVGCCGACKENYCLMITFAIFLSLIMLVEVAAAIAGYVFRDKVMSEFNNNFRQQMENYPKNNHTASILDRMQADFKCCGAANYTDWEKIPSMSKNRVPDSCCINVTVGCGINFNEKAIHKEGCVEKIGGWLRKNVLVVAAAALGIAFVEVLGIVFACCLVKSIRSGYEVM

The substance Isotype Control 2 (antibody) gave an HEK293 (S/N), MFI of antibody over wells with no antibody of 1.5.

Isotype Control 1 (antibody) showed an HEK293 (S/N), MFI of antibody over wells with no antibody of 1.4.
